Non-standard residues stand in square brackets, D forms with d. Ava = NCCCCC(=O)O
Biological target: murine class II MHC allele E^k on CH27 B cell lymphoma antigen presenting cells (murine)
Experiment: cell-based or functional assay

| T cell proliferative response (HT-2 [3H]TdR uptake) at 0.01 nM | T cell proliferative response (HT-2 [3H]TdR uptake) at 0.05 nM | T cell proliferative response (HT-2 [3H]TdR uptake) at 0.18 nM | T cell proliferative response (HT-2 [3H]TdR uptake) at 0.73 nM | T cell proliferative response (HT-2 [3H]TdR uptake) at 3 nM | T cell proliferative response (HT-2 [3H]TdR uptake) at 12 nM | T cell proliferative response (HT-2 [3H]TdR uptake) at 47 nM | T cell proliferative response (HT-2 [3H]TdR uptake) at 188 nM | T cell proliferative response (HT-2 [3H]TdR uptake) at 750 nM | T cell proliferative response (HT-2 [3H]TdR uptake) at 3000 nM | Binder |
| --- | --- | --- | --- | --- | --- | --- | --- | --- | --- | --- |
| 0.6 thousands of cpm | 5.3 thousands of cpm | 21.6 thousands of cpm | 22.3 thousands of cpm | 27.9 thousands of cpm | 29.5 thousands of cpm | 26.2 thousands of cpm | 26.2 thousands of cpm | 31.7 thousands of cpm | 31.9 thousands of cpm | Ac-LRMK[Ava][Ava]IAYLKQATAK-NH2 (SMILES CC[C@H](C)[C@H](NC(=O)CCCCNC(=O)CCCCNC(=O)[C@H](CCCCN)NC(=O)[C@H](CCSC)NC(=O)[C@H](CCCNC(=N)N)NC(=O)[C@H](CC(C)C)NC(C)=O)C(=O)N[C@@H](C)C(=O)N[C@@H](Cc1ccc(O)cc1)C(=O)N[C@@H](CC(C)C)C(=O)N[C@@H](CCCCN)C(=O)N[C@@H](CCC(N)=O)C(=O)N[C@@H](C)C(=O)N[C@H](C(=O)N[C@@H](C)C(=O)N[C@@H](CCCCN)C(N)=O)[C@@H](C)O) [Hybrid 3, Ac-LRMK-ava-ava-IAYLKQATAK-NH2] |
| 0 thousands of cpm | 0 thousands of cpm | 0 thousands of cpm | 4 thousands of cpm | 0.4 thousands of cpm | 10.9 thousands of cpm | 29.5 thousands of cpm | 32.4 thousands of cpm | 27.8 thousands of cpm | 25.2 thousands of cpm | Ac-IAYLKQATAK-NH2 [Hybrid 1, Ac-IAYLKQATAK-NH2 (antigenic epitope PGCC 95-104 without Ii-Key)] |
| 14.3 thousands of cpm | 21.3 thousands of cpm | 36.7 thousands of cpm | 30.1 thousands of cpm | 31.4 thousands of cpm | 44.6 thousands of cpm | 26.2 thousands of cpm | 29.1 thousands of cpm | 27.5 thousands of cpm | 27.3 thousands of cpm | Ac-LRMKLPKSAKPIAYLKQATAK-NH2 [Hybrid 5, Ac-LRMKLPKSAKPIAYLKQATAK-NH2] |
| 2.5 thousands of cpm | 5.8 thousands of cpm | 9.1 thousands of cpm | 19.2 thousands of cpm | 19 thousands of cpm | 23.1 thousands of cpm | 19.5 thousands of cpm | 20.8 thousands of cpm | 23.3 thousands of cpm | 25.2 thousands of cpm | Ac-LRMKLPKSIAYLKQATAK-NH2 [Hybrid 4, Ac-LRMKLPKSIAYLKQATAK-NH2] |
| 3.4 thousands of cpm | 19.8 thousands of cpm | 31.2 thousands of cpm | 38.8 thousands of cpm | 30.1 thousands of cpm | 21.9 thousands of cpm | 20.8 thousands of cpm | 27.2 thousands of cpm | 23.9 thousands of cpm | 25.1 thousands of cpm | Ac-LRMK[Ava]IAYLKQATAK-NH2 (SMILES CC[C@H](C)[C@H](NC(=O)CCCCNC(=O)[C@H](CCCCN)NC(=O)[C@H](CCSC)NC(=O)[C@H](CCCNC(=N)N)NC(=O)[C@H](CC(C)C)NC(C)=O)C(=O)N[C@@H](C)C(=O)N[C@@H](Cc1ccc(O)cc1)C(=O)N[C@@H](CC(C)C)C(=O)N[C@@H](CCCCN)C(=O)N[C@@H](CCC(N)=O)C(=O)N[C@@H](C)C(=O)N[C@H](C(=O)N[C@@H](C)C(=O)N[C@@H](CCCCN)C(N)=O)[C@@H](C)O) [Hybrid 2, Ac-LRMK-ava-IAYLKQATAK-NH2] |
| 2.9 thousands of cpm | 2.4 thousands of cpm | 11.9 thousands of cpm | 28.7 thousands of cpm | 31.4 thousands of cpm | 39.2 thousands of cpm | 25.3 thousands of cpm | 26.9 thousands of cpm | 23.4 thousands of cpm | 21.5 thousands of cpm | Ac-LRMKLPKSAKPVSKIAYLKQATAK-NH2 [Hybrid 6, Ac-LRMKLPKSAKPVSKIAYLKQATAK-NH2] |
